These are literature values, as cited in PMC2628467.

The data set addresses RNase H folding intermediate mimic (Escherichia coli) (UniProt P0A7Y4).

In the case of “RNase H folding intermediate mimic (from UniProt P0A7Y4)”, the Kd was 500 nM.

The Kd is the constant that tells how readily two partners part at equilibrium.
